Here are results for one molecule from patent US20170037092A1.

The experiment has as its target HLA-A*02:01 (human). The experiment is described as follows: UV-ligand exchange ELISA.

On to SLTETIEGV (modifications not checked) […], for which the peptide exchange yield fell in the range of 20 to 50%.
